# Results reported in paper PMC11098746 (2024).
# B1: ADP237 (protein)
# chain: TKKKVSVSEINFDSAVDDVQWCGNNHMTVLVKTVKGRLYRSSDGGKIWTNIAGNLADKENNKADPSSNHMNEMTTVDLIMVNSVNKNIVLIIGNQKNHYISEDSGETFRLLNYQNKINFWQFHSTKTHWALVSSWTEACYSNDDNSGECMQTLSLTKDLGRTFQLIDIYVVQFNWGDKESHLEDTIYYTRHKNRNGHQQRFSGWSKDVDFVATHNFGKSVDVLVKQGNKFLISNGYIFVAKLNDVIKQTVNMMVSTDGGKTFNKANLPENIHEKSYTVLDTSEGSIMLHVNHGTSSEKINTGNVYISDASGLNYALSLPNNIRTSSGECEFDRVLSLDGVYIANFLDVNNEIKDEDLRFQNFKSAIEEDIAPFETNTEKRKKQYNKGKNEDAVRTVISFNKGGEWSYLKAPKVDSRGNKYECGDNCYLHLHGITNYHQYAPFYSIENAVGIIMGTGNVGSHLRYESDEVNTFLSRDGGVTWIEAHKGPYIYEYGDYGGLIVMADDLRKTNQIVFSWNEGQSWFDFELGQFSIDVDNIVAEPNSASVEFLVYGTRNDVGVLYHLDFNALGQPLCKGLWAADSVSSDYETWSPTSGNFNDKCILGRKITYTRRKQTSECFNGKDLKRTVDKKPCECTPEDYECETGFTRKIGSYECKPNDPTLTIEGCTSSSYFYANAYRKVPGDICVNGWVPEKVPVPCPSYAPFNKAAK
# modifications: bait human Fc-tagged dimer; N-glycosylation sequons mutated in Plasmodium baits
# Experiments:
# Experiment in all cases: AVEXIS screen signal:noise (double-corrected)
# [1] = target: T1, ADP292
# T1 chain: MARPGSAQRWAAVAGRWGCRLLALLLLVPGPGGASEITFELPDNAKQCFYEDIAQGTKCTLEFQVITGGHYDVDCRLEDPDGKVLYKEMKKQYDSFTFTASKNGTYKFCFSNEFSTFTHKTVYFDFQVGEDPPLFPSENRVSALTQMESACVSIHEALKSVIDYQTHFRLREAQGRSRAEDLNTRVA
# [2] = target: T2, ADP377
# T2 chain: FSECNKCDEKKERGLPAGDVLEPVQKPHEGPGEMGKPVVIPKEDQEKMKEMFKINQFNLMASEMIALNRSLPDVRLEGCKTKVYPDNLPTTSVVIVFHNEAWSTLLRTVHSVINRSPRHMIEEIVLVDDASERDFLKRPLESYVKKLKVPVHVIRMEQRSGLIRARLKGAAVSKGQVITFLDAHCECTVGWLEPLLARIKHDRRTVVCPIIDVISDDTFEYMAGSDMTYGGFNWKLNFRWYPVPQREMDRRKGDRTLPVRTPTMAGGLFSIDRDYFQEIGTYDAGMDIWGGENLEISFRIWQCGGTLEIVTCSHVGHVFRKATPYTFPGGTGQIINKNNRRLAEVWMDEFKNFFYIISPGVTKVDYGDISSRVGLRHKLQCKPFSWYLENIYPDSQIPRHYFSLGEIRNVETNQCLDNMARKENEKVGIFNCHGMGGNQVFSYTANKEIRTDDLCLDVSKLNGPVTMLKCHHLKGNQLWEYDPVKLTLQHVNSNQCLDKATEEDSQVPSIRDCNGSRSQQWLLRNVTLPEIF
# [3] = target: T3, ADP106
# T3 chain: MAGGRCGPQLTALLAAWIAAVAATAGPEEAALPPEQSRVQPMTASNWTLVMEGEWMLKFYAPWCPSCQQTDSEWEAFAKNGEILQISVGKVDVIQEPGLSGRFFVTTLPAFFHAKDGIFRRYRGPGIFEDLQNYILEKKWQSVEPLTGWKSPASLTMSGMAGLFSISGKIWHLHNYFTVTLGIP
# [4] = target: T4, ADP269
# T4 chain: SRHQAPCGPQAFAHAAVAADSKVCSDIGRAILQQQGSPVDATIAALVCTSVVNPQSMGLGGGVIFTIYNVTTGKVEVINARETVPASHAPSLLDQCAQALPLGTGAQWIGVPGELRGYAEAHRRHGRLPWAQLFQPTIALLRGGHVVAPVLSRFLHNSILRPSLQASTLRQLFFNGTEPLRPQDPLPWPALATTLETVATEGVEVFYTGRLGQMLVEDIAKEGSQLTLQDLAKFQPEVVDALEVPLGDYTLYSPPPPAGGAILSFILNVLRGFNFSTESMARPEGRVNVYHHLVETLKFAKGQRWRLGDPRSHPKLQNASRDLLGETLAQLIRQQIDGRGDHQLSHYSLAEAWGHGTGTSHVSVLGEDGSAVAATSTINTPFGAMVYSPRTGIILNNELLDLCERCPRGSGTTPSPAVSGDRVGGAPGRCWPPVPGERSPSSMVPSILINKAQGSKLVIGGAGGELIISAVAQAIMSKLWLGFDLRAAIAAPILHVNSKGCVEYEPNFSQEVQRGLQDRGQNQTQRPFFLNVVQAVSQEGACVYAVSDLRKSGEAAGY
# [5] = target: T5, ADP261
# T5 chain: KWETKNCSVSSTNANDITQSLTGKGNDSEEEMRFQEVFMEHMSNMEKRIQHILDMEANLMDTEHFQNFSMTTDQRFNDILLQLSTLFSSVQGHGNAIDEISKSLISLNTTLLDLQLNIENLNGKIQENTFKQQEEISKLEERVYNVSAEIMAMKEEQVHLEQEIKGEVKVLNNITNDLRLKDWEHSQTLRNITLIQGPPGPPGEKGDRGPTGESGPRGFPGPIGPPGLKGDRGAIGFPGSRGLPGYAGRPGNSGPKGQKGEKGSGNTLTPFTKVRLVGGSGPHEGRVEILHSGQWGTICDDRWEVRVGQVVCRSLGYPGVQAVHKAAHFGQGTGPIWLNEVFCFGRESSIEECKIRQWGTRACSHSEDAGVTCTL
# [6] = target: T6, ADP385
# T6 chain: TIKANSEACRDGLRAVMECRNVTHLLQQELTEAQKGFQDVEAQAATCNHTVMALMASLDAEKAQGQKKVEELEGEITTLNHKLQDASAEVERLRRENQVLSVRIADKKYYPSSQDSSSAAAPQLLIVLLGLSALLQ
# [7] = target: T7, ADP264
# T7 chain: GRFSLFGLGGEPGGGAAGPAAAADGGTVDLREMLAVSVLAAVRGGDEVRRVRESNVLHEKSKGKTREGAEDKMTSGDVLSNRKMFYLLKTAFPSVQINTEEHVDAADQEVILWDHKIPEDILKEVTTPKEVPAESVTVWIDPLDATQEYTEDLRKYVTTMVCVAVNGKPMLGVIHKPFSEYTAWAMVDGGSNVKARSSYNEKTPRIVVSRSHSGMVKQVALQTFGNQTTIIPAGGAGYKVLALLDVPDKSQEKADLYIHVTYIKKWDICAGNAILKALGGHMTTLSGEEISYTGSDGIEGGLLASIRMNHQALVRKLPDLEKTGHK
binder,measurement,setting,value
B1,binding score,[1],5.28
same,binding score,[2],11.5
same,binding score,[3],10.3
same,binding score,[4],10.4
same,binding score,[5],19.5
same,binding score,[6],5.45
same,binding score,[7],9.43
